Results reported in patent US20030119169.

T1: in vitro translated GST-CPP32 precursor, P42574
T1 chain: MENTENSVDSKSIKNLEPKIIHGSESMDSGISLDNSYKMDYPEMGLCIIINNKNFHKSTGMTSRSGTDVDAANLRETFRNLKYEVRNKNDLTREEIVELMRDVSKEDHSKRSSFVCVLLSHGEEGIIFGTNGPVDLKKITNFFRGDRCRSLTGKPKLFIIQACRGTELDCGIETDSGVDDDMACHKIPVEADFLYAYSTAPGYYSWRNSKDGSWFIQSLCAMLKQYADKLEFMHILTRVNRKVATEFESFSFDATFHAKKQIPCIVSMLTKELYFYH

T2: in vitro translated GST-Mch3α2 precursor
T2 sequence (P55210 whole entry, looked up): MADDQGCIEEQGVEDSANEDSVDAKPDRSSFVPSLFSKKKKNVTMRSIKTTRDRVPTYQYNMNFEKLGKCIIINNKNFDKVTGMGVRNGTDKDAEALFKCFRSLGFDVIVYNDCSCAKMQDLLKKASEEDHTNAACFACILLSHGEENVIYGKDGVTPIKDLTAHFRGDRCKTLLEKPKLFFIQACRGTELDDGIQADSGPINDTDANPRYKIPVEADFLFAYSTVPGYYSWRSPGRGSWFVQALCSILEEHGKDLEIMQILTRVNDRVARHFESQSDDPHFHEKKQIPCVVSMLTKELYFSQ

T3: tetrapeptide substrate DEVD-AMC
T3 chain: DEVD

T4: YVADamc
T4 chain: YVAD


What was measured:
[1] = target: T1, in vitro translated GST-CPP32 …
[2] = target: T2, in vitro translated GST-Mch3α2 precursor
[3] = target: T3, tetrapeptide substrate DEVD-AMC
YVADamc = target: T4, YVADamc
[4] = target: in vitro translated GST control [GST: P08515]
Sequence of in vitro translated GST control [GST: P08515] (P08515 whole entry): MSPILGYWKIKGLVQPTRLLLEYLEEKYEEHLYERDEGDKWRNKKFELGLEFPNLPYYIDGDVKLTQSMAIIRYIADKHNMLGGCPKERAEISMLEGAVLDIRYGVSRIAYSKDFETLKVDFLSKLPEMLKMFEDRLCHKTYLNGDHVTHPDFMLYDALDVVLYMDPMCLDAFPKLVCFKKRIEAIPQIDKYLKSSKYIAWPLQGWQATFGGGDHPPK

| Protein | cleavage of 35S-labelled in vitro translated precursor, SDS-PAGE and autoradiography [1] | cleavage of 35S-labelled in vitro translated precursor, SDS-PAGE and autoradiography [2] | Km (DEVDamc, µM) [3] [µM] | kcat/Km (DEVDamc, mM^-1s^-1) [3] [mM⁻¹ s⁻¹] | Km (YVADamc, µM) (YVADamc) [µM] | kcat/Km (YVADamc, mM^-1 s^-1) (YVADamc) [M⁻¹ s⁻¹] | cleavage of 35S-labelled in vitro translated protein, SDS-PAGE and autoradiography [4] | cleavage of resin-immobilized 35S-labelled precursor, soluble products on gradient SDS gel [2] |
| --- | --- | --- | --- | --- | --- | --- | --- | --- |
| Mch3α, bacterially expressed recombinant active enzyme (protein) AKPDRSSFVPSLFSKKKKNVTMRSIKTTRDRVPTYQYNMNFEKLGKCIIINNKNFDKVTGMGVRNGTDKDAEALFKCFRSLGFDVIVYNDCSCAKMQDLLKKASEEDHTNAACFACILLSHGEENVIYGKDGVTPIKDLTAHFRGDRCKTLLEKPKLFFIQACRGTELDDGIQADSGPINDTDANPRYKIPVEADFLFAYSTVPGYYSWRSPGRGSWFVQALCSILEEHGKDLEIMQILTRVNDRVARHFESQSDDPHFHEKKQIPCVVSMLTKELYFSQ | No cleavage was observed in the buffer control or the Mch3α reaction | Mch3α exhibited significantly less activity than CPP32 towards the in vitro translated GST-Mch3α, a similar cleavage product was observed | 51 | 11 | – | – | – | – |
| CPP32, bacterially expressed recombinant active enzyme (protein) SGISLDNSYKMDYPEMGLCIIINNKNFHKSTGMTSRSGTDVDAANLRETFRNLKYEVRNKNDLTREEIVELMRDVSKEDHSKRSSFVCVLLSHGEEGIIFGTNGPVDLKKITNFFRGDRCRSLTGKPKLFIIQACRGTELDCGIETDSGVDDDMACHKIPVEADFLYAYSTAPGYYSWRNSKDGSWFIQSLCAMLKQYADKLEFMHILTRVNRKVATEFESFSFDATFHAKKQIPCIVSMLTKELYFYH | CPP32 showed a very weak activity towards its precursor and generated a faint GST-prodomain band of 30 kDa size | incubation of CPP32 with the in vitro translated GST-Mch3α generated a GST-prodomain cleavage product of molecular mass 32 kDa | – | 1600 | > 500 | 67 | No cleavage was observed when CPP32 was incubated with an in vitro translated GST control | CPP32 was observed to efficiently cleave the GST-Mch3α precursor |
